Where a chain is given by its changes, count along the chain named. One block for each binder: values may come before it. Non-standard residues stand in square brackets, D forms with d. No end group written: not given here. *: point of attachment. Biotin = O=C1N[C@H]2[C@H](CS[C@H]2CCCCC(=O)*)N1; sY = N[C@@H](Cc1ccc(OS(=O)(=O)O)cc1)C(=O)O
Key:
[1] = molecular target: T1, SulfoTyr C4 peptide (not fully specified; Y4, Y7 and Y9 sulfated (SO3); C-terminal biotin); assay: ELISA, 50 nM mAb
T1 construct: also called C4 alpha chain peptide; human sulfotyrosinylated C4 peptide
T1 peptide: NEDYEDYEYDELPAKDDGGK
Description: (§1) Recombinant PSGL-1-hFc1 chimera protein consisting of PSGL-1's extracellular domain (ECD) served as a positive control. […] Primary antibody was added (25 ul per well) in duplicate at 50 nM in assay buffer (blocking buffer containing 0.05% Tween®20) into test and control (just blocked) wells and the plate incubated for 45 min at 37° C.

[2] = molecular target: T2, Sulfotyr fibrinogen γ peptide (not fully specified; Y8 and Y12 sulfated (SO3); C-terminal biotin); assay: ELISA, 50 nM mAb
T2 construct: also called Fibrinogen gamma peptide; human sulfotyrosinylated fibrinogen peptide
T2 peptide: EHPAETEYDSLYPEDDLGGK
Description: as §1

[3] = molecular target: T3, Recombinant human PSGL-1(ECD)-hFc1 (R&D Systems, Cat. 3345-PS) (human, UniProt Q14242 42-305); assay: ELISA, 50 nM mAb
T3 construct: Bought; Gln42-Val295 counted on AAC50061; also called PSGL-1-Fc; PSGL-1-hFc1 chimera; not shown: human IgG1 Fc, Pro100-Lys330
T3 sequence: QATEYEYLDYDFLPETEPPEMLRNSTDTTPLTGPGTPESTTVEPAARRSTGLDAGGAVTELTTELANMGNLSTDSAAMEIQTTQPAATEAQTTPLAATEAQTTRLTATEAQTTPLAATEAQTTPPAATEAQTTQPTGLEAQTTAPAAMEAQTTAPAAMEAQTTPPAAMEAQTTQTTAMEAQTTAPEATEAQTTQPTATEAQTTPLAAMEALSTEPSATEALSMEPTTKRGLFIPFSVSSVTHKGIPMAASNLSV
Description: as §1

[4] = molecular target: T4, Human complement C4 protein (Millipore Sigma, Cat. 204886) (human, UniProt P0C0L4 20-675; P0C0L4 680-1446; P0C0L4 1454-1744, limits assumed, natural sulfotyrosines); assay: ELISA, 50 nM mAb
T4 construct: mature
Description: as §1

[5] = molecular target: T5, Sulfotyrosine CCR2b biotin peptide (human); assay: ELISA, 50 nM mAb
T5 construct: also called CCR2b peptide
T5 peptide: TTFFD[sY]D[sY]GAPSHGGK(Biotin)
Description: as §1

[6] = molecular target: T6, Scrambled Y42,52,63(SO3) PSGL-1(42-62) biotin peptide (sulfotyrosine at peptide positions 1, 11 and 22; C-terminal Lys-biotin); assay: ELISA, immobilized biotin peptide
T6 peptide: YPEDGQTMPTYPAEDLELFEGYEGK
Method in brief: (§2)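 In this ELISA, half-well high binding plates (Corning Cat. #3690) received 3 ug/mL/25 ul per well of biotin-tagged PSGL-1 peptides covering residues 42 to 62, diluted in PBS, pH 7.4, and coated overnight at 4° C. Duplicate readings for each antibody were averaged and the average assay background was subtracted. PSGL-1 protein or peptide was the positive control.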

[7] = molecular target: T7, Biotin PSGL-1(42-62) peptide, unmodified (human, C-terminal Lys-biotin); assay: ELISA, immobilized biotin peptide
T7 construct: Residues 42-62 followed by GGGK-biotin; also called WT; wild-type
T7 peptide: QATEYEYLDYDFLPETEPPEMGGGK
Method in brief: as §2

[8] = molecular target: T8, Biotin Y46,48,51(SO3) PSGL-1(42-62) peptide (human, sulfotyrosine at Y46, Y48 and Y51; C-terminal Lys-biotin); assay: ELISA, immobilized biotin peptide
T8 construct: also called fully sulfated N-terminal PSGL-1 peptide
T8 peptide: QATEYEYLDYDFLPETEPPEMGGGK
Method in brief: as §2

[9] = molecular target: T9, Cynomolgus PSGL-1(ECD)-hFc1 (cynomolgus macaque); assay: ELISA, 20 nM mAb on plate cyno PSGL-1(ECD)-Fc
T9 construct: also called Cyno PSGL1-Fc; Cyno PSGL-1(ECD)-Fc
Description: Antibody binding to plate-immobilized cyno PSGL-1(ECD) was determined either at one concentration (20 nM) or by generating full antibody binding curves (0.003-200 nM). A typical ELISA was performed by overnight coating at 4° C. with 3 ug/mL/25 ul per well of recombinant cyno PSGL-1(ECD) protein in PBS, pH 7.4, in high binding half-well plates (Corning Cat. #3690). […] Anti-PSGL-1 IgG in assay buffer (blocking buffer containing 0.05% tween 20) was added into test and control wells (20 nM/25 ul/well) and the plate incubated for 45 min at 37° C. […] The plate was incubated for 45 min at 37° C., and mAb bound to plate-immobilized target determined at A450 nm using HRP substrate (3,3′,5,5′-tetramethylbenzidine (TMB)). For each antibody, duplicate values were averaged and assay background subtracted.

T4 sequence (P0C0L4 20-675 limits assumed, form in doubt, chain 1 of 3): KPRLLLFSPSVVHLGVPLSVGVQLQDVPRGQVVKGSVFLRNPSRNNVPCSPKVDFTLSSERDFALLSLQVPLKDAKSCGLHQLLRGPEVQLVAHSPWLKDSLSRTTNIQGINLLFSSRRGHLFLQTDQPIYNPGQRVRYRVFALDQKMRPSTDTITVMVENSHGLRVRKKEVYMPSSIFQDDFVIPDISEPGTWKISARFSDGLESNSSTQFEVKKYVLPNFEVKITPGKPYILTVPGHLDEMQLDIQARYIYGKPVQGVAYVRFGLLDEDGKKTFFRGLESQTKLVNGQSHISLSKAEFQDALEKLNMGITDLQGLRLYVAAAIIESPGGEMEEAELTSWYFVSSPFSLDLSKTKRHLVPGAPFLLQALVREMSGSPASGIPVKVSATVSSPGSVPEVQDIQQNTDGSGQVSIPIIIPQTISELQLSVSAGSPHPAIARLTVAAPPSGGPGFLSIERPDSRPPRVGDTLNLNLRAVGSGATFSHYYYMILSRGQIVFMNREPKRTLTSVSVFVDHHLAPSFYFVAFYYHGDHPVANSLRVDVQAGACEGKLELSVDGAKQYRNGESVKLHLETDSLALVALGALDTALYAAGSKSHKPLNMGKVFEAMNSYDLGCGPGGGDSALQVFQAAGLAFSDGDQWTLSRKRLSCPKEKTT
T4 sequence (P0C0L4 680-1446 limits assumed, form in doubt, chain 2 of 3): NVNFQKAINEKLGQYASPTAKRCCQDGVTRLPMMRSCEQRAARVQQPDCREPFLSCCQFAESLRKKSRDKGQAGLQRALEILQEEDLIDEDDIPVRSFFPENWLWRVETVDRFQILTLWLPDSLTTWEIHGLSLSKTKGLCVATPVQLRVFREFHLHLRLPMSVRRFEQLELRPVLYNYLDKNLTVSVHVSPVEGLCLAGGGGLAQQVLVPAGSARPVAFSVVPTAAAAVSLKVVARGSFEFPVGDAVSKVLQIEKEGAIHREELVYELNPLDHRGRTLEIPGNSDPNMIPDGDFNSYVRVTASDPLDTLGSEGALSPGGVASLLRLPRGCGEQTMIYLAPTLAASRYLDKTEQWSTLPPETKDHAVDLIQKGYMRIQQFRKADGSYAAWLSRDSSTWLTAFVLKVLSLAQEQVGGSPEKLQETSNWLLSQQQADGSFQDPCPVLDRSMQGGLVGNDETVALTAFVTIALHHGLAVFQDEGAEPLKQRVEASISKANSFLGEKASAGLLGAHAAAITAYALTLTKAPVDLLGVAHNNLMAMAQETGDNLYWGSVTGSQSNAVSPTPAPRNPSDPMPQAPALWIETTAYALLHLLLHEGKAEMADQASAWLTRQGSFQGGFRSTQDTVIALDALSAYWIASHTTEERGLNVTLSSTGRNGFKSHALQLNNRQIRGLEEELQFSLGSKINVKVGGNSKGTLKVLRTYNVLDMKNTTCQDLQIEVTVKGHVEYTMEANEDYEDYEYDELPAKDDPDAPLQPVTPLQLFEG
T4 sequence (P0C0L4 1454-1744 limits assumed, form in doubt, chain 3 of 3): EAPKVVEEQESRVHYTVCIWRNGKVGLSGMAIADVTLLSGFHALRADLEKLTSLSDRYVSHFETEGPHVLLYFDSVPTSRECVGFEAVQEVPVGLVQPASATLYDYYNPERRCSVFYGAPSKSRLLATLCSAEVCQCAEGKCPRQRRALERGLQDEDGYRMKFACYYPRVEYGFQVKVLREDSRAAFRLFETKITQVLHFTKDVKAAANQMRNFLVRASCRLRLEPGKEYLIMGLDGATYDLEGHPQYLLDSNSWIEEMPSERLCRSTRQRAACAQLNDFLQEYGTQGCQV

B1: 05D01 (antibody, V domains shown)
VH: QVTLRESGGALVQPGGSLRLSCAASGFPLRSNAMTWVRQAPGKGLEWVSDIRGNGASTYYADSVKGRFTISRDDSNNILFLQMNSLRAEDTAVYYCVGHGSSSYWGQGTLVTVSS
VL: DVVMTQSPLSLPVTLGQPASISCRSSQSLVYRDGNIYLNWFQQRPGQSPRRLIYKVSNRDSGVPDRFSGSGSGTDFTLKISRVEAEDVGVYYCMQLTHWPPGFAQGTKLEIK
binding normalized to PSGL-1 [1]: 0.11
binding normalized to PSGL-1 [2]: 0.89
A450nm [3]: 2.33 A450nm
binding normalized to PSGL-1 [4]: 0.08
binding normalized to PSGL-1 [5]: 0.17
A450nm, 20 nM mAb [6]: 0.01 A450nm
binding result [6]: no binding (tested: 20 nM)
A450nm, 20 nM mAb [7]: 1.33 A450nm
A450nm, 20 nM mAb [8]: 2.85 A450nm
A450nm [9]: 1.38 A450 nm

B2: 03F03 (antibody, V domains shown)
VH: QVQLQESGPGLVKPSETLSLTCTVSGGSISSSSYYWGWIRQPPGKGLEWIGSIYYSGSTYYNPSLKSRVTISVDTSKNQFSLKLSSVTAADTAVYYCARSRPRPWAFDIWGQGTMVTVSS
VL: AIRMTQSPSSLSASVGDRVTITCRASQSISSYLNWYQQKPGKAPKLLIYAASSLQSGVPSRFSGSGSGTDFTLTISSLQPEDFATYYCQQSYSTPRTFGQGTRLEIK
binding normalized to PSGL-1 [1]: 1.19
binding normalized to PSGL-1 [2]: 1.33
A450nm [3]: 2.12 A450nm
binding normalized to PSGL-1 [4]: 1.35
binding normalized to PSGL-1 [5]: 1.21
A450nm, 20 nM mAb [6]: 0.03 A450nm
binding result [6]: no binding (tested: 20 nM)
EC50 [7]: > 500000 pM
A450nm, 20 nM mAb [8]: 2.54 A450nm
EC50 [8]: 80 pM
A450nm [9]: 0.58 A450 nm

B4: 05H03 (antibody, IgG4, V domains shown)
VH: QVQLQQSGGGLVQPGGSLTLSCVGSGFDFRSYAMSWVRQAPGKGLEWVSGINNSGSKTYYADFVKGRFSVSRDNSKNIVWLRMRSLRAEDTAVYYCARRTFGPPHAWGQGTMVTVSS
VL: DIVMTQSPLSLSVTPGEPASISCRSSQSLLHSNGYKYLDWYLQKPGQSPQLLIYMGSNRASGVPDRFSGSGSGTDFTLKISRVEAEDVGVYYCMQGLQSPLTFGGGTKVEIE
binding normalized to PSGL-1 [1]: 0.49
binding normalized to PSGL-1 [2]: 0.68
A450nm [3]: 2.58 A450nm
binding normalized to PSGL-1 [4]: 0.58
binding normalized to PSGL-1 [5]: 0.45
A450nm, 20 nM mAb [6]: 0.04 A450nm
binding result [6]: no binding (tested: 20 nM)
EC50 [7]: ~20 pM
A450nm, 20 nM mAb [8]: 2.77 A450nm
EC50 [8]: ~20 pM
A450nm [9]: 2.01 A450 nm

B5: 05A11 (antibody, IgG4, V domains shown)
VH: EVKLLESGGGVVQPGRSLRLSCAASGFSFSAYGMHWVRQAPGKGLEWVSSISGSGDGTYYADSVKGRFTISRDNSKNTLYLQMNSLRAEDAAVYYCAKSVKGRGYFFDYWGQGTLVTVSS
VL: DIVLTQSPSSLSASVGDRVTITCRASQSISSYLNWYQQKPGKAPKLLIYAASSLQSGVPSRFSGSGSGTDFTLSISNLQPEDFATYYCQQAYKFPRSFGGGTKVEFK
binding normalized to PSGL-1 [1]: 0.44
binding normalized to PSGL-1 [2]: 0.87
A450nm [3]: 1.99 A450nm
binding normalized to PSGL-1 [4]: 0.44
binding normalized to PSGL-1 [5]: 0.09
binding result [6]: no binding (tested: 20 nM)
EC50 [7]: ~500000 pM
A450nm, 20 nM mAb [8]: 2.52 A450nm
EC50 [8]: ~25 pM
A450nm [9]: 0.7 A450 nm

B7: 07E07 (antibody, IgG4, V domains shown)
VH: QVQLQQSGAEVKKPGASVKVSCKASGYTFTSYYMHWVRQAPGQGLEWMGIINTSSGSTKYAQRFQDRVTVTRDTSTTTVYMELNSLRSEDTAVYYCARGGRAYSGSFDNWGQGTLVTVSS
VL: B1 VL with Y31H, I36T, L38F, L96A, P101R, G102T, A104G, L109V
binding normalized to PSGL-1 [1]: 0.97
binding normalized to PSGL-1 [2]: 1.04
A450nm [3]: 2.44 A450nm
binding normalized to PSGL-1 [4]: 1.04
binding normalized to PSGL-1 [5]: 0.75
A450nm, 20 nM mAb [6]: 0.01 A450nm
binding result [6]: no binding (tested: 20 nM)
EC50 [7]: > 500000 pM
A450nm, 20 nM mAb [8]: 2.77 A450nm
EC50 [8]: 150 pM
A450nm [9]: 0.38 A450 nm

B10: 05C02 (antibody, V domains shown)
VH: EVKLLESGGGVVQPGRSLRLSCAASGFTFKNFAMHWVRQAPGKGLEWVAVISYDGSSEDYADSVKGRFTLSRDNAKNSLYLQMNNLRAEDTAVYYCARGRRPDYWGQGTLVTVSS
VL: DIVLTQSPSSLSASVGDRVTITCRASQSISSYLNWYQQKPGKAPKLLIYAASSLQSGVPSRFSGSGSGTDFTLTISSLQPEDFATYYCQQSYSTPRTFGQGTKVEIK
binding normalized to PSGL-1 [1]: 0.47
binding normalized to PSGL-1 [2]: 0.42
A450nm [3]: 2.27 A450nm
binding normalized to PSGL-1 [4]: 0.48
binding normalized to PSGL-1 [5]: 0.06
binding result [6]: no binding (tested: 20 nM)
EC50 [7]: 3000 pM
A450nm, 20 nM mAb [8]: 2.8 A450nm
EC50 [8]: ~10 pM
A450nm [9]: 0.64 A450 nm

Second part, the binder after the results:

binding normalized to PSGL-1 [1]: 0.4
binding normalized to PSGL-1 [2]: 0.49
A450nm [3]: 2.66 A450nm
binding normalized to PSGL-1 [4]: 0.61
binding normalized to PSGL-1 [5]: 0.37
A450nm, 20 nM mAb [6]: 0.05 A450nm
binding result [6]: no binding (tested: 20 nM)
EC50 [7]: ~50 pM
A450nm, 20 nM mAb [8]: 2.63 A450nm
EC50 [8]: 70 pM
A450nm [9]: 1.93 A450 nm
B3: 09D04 (antibody, IgG4, V domains shown)
VH: B4 VH
VL: DVVMTQSPLSLPVTPGEPASISCRSSQSLLHSNGYTYLEWYLHKPGQSPQLLIYLGSNRASGVPDRFSGSGSGTDFTLKISRVEAEDVGVYYCMHSLHIPFTFGPGTKVDIK

binding normalized to PSGL-1 [1]: 0.54
binding normalized to PSGL-1 [2]: 0.14
A450nm [3]: 2.49 A450nm
binding normalized to PSGL-1 [4]: 0.22
binding normalized to PSGL-1 [5]: 0.08
binding result [6]: no binding (tested: 20 nM)
EC50 [7]: > 500000 pM
A450nm, 20 nM mAb [8]: 2.43 A450nm
EC50 [8]: 100 pM
A450nm [9]: 1.18 A450 nm
B6: 09A08 (antibody, IgG4, V domains shown)
VH: QVQLVQSGAAVKKPGESLKISCKGSGYTFSNYWIGWVRQMPGKGLEWMGIIYPGDSDTRYSPSFQGQVTISADKSISTAYLQWSSLKASDTAMYYCARHIVGPPKSAFDIWGQGTMVTVSS
VL: DIVMTQTPLSLPVTLGQPASISCSSSQGLQKRDGNTYLNWFQQRPGQSPRRLIYKVSNRDSGVPDRFSGSGSGTDFTLKISRVEAEDVGVYYCMQGTHWPWTFGQGTRVEIK

binding normalized to PSGL-1 [1]: 0.07
binding normalized to PSGL-1 [2]: 0.26
A450nm [3]: 2.38 A450nm
binding normalized to PSGL-1 [4]: 0.09
binding normalized to PSGL-1 [5]: 0.04
binding result [6]: no binding (tested: 20 nM)
EC50 [7]: 510 pM
A450nm, 20 nM mAb [8]: 2.52 A450nm
EC50 [8]: 650 pM
A450nm [9]: 1.4 A450 nm
B8: 11D10 (antibody, IgG4, V domains shown)
VH: EVKLLESGGGLVQPGGSLRLSCAVSGFTFSTSAMIWVRQAPGKGLEWVSFISGSTSNTYYADSVKGRFTISRDNSKNTLYLQMNGLTAEDTAVYYCARGTAAATWGQGALVTVSS
VL: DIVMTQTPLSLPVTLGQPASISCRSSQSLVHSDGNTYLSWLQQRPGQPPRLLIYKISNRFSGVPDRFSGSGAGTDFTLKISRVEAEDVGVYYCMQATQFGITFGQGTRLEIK

binding normalized to PSGL-1 [1]: 1
binding normalized to PSGL-1 [2]: 1.06
A450nm [3]: 2.51 A450nm
binding normalized to PSGL-1 [4]: 0.56
binding normalized to PSGL-1 [5]: 0.93
A450nm, 20 nM mAb [6]: 0.03 A450nm
binding result [6]: no binding (tested: 20 nM)
EC50 [7]: ~500000 pM
A450nm, 20 nM mAb [8]: 2.82 A450nm
EC50 [8]: 510 pM
A450nm [9]: 0.73 A450 nm
B9: 09A02 (antibody, IgG4, V domains shown)
VH: EVQLVQSGGGLVKPGGSLRLSCAASGFTFRTAWMSWVRQAPGKGLEWVGRMKSKNDGGTTDYAAPVKGRFTISRDDSRDTVYLQMNSLKTEDTGVYYCATYAAGATVPWGQGTLVTVSS
VL: DIVMTQTPLSAPVTLGQPASISCRSSRSLLQRNGYNYVDWYQQKAGNPPRLLIYLGSRRASGVPDRFSGSGSDKDFTLKISRVEADDVGFYFCKQSLQAPPTFGGGTKIEIT

— US20220396632A1 (VERSEAU THERAPEUTICS, published 2022)
